Molecular target: peptide 91a (human)
Experiment: ITC

B1: peptide 374a (peptide)
chain: EELARLEREYQDLLNVKMALDIEIATYRKLLEALESR
  Kd: 3000 nM
  stoichiometry N: ~1

— PMC7217734 (Journal of biomolecular structure & dynamics, 2019)
